Experimental data reported in article PMC12632113 (Cell & Bioscience, 2025).

Target: the molecule itself
Assay: native gel or EMSA

B1: polypyrimidine tract-binding protein 1 (PTBP1), wild type (natural protein)
chain: not shown
For B1, the “stoichiometry N” value was 2.
